Experimental data from article PMC5040590.

Experiments:
[1] = molecular target: r-synGAP-α1 (soluble, recombinant synGAP-α1, residues 103-1293) (rat); test: SPR; 'competition in solution': 25 nM r-synGAP-α1 pre-equilibrated with 0-10 µM soluble PDZ domain; free r-synGAP-α1 captured on the same PDZ domain amine-coupled to a CM5 chip; Biacore T200, HBS-EP+, 25°C; single-site fit
[2] = molecular target: r-synGAP-α1 (soluble, recombinant synGAP-α1, residues 103-1293) (rat)
[3] = molecular target: r-synGAP-α1 (soluble, recombinant synGAP-α1, residues 103-1293) (rat); test: pull-down; as a1, with or without Ca2+/CaM during the incubation with PDZ resin (legend: 0.7 mM CaCl2/3.4 μM CaM; methods: 2.5 µM CaM and 0.5 mM CaCl2); 500 nM r-synGAP-α1, 60 min, 25°C
[4] = molecular target: PDZ3 of PSD-95 (residues 302-402), soluble recombinant (mouse) (UniProt Q62108); test: SPR; conventional Biacore assay: varying concentrations of r-synGAP-α1 applied to a chip with immobilised PDZ domain; one experiment
[5] = molecular target: calmodulin (CaM), with Ca2+ (UniProt P62157); test: SPR; CaM amine-coupled to a CM5 chip (50 RU); synGAP injected in HBS-EP+ with 10 mM CaCl2, 25°C, 100 µl/min; equilibrium analysis
[6] = molecular target: CaM-Sepharose 4B (calmodulin on Sepharose resin) (UniProt P62157); test: pull-down; equilibrium binding of purified synGAP (1-500 nM, 300 µl) to 50 µl CaM-Sepharose 4B, 60 min; 50 mM Tris pH 7.5, 200 mM NaCl, 5 mM TCEP, 2 mM CaCl2; bound protein by quantitative immunoblot; hyperbolic fit
[7] = molecular target: PDZ123 domain-HaloTag fusion on HaloLink resin (PDZ123 affinity resin) (mouse) (UniProt Q62108); test: pull-down; PDZ domain-HaloTag fusions on HaloLink resin (20 µl); r-synGAP-α1 500 nM, 200 µl, 60 min, 25°C; 25 mM Tris pH 7.0, 150 mM NaCl, 1 mM MgCl2, 0.5 mM TCEP, 0.2% Tergitol, 0.5 mM EDTA; bound protein eluted, SDS-PAGE, Gel Code Blue, quantified
[8] = molecular target: PDZ123 domain-HaloTag fusion on HaloLink resin (PDZ123 affinity resin) (UniProt Q62108); test: PDZ123 affinity resin binding (pull-down, eluate quantified); conditions: phosphorylated 0.5 min with 10 nM CaMKII, 0.7 mM CaCl2/3.4 μM CaM; resin 60 min at 25°C; n = 4; parent: est. 0.0079; read off a plot

PDZ2 of PSD-95 (residues 155-249), soluble recombinant (from UniProt Q62108 155-249) (domain or fragment)
Kd [1]: 1.5 µM

PDZ3 of PSD-95 (residues 302-402), soluble recombinant (from UniProt Q62108 302-402) (domain or fragment)
Kd [1]: 0.62 µM

calmodulin (CaM), with Ca2+ (from UniProt P62157 1-149) (natural protein)
rate and stoichiometry of phosphorylation of r-synGAP-α1 by CDK5/p35 or CDK5/p25 in the presence of Ca2+/CaM (0.7 mM CaCl2, 3.4 μM CaM) [2]: 2 fold | percent reduction of binding of r-synGAP-α1 to PDZ3 with Ca2+/CaM [3]: 25%

r-synGAP-α1 (soluble, recombinant synGAP-α1, residues 103-1293) (domain or fragment)
Kd [4]: 0.73 µM | Kd [5]: 0.009 µM | Kd [6]: 0.031 µM | amount bound per individual PDZ domain, relative to PDZ1 or PDZ2 alone [7]: 4 fold | amount bound per individual PDZ domain, relative to PDZ3 alone [7]: 2 fold

r-synGAP-α1 phosphorylated by CaMKII for 0.5 min S1093D; S1123D
response (pmol r-synGAP-α1/pmol PDZ domain) [8]: 0.0083

r-synGAP-α1 phosphorylated by CaMKII for 0.5 min S1093D; S1123D; S1283D
response (pmol r-synGAP-α1/pmol PDZ domain) [8]: 0.014

r-synGAP-α1 phosphorylated by CaMKII for 0.5 min S1123D
response (pmol r-synGAP-α1/pmol PDZ domain) [8]: 0.0099

r-synGAP-α1 phosphorylated by CaMKII for 0.5 min S1283D
response (pmol r-synGAP-α1/pmol PDZ domain) [8]: 0.011

r-synGAP-α1 phosphorylated by PLK2 for 10 min (domain or fragment)
decrease of binding relative to unphosphorylated r-synGAP-α1 [7]: 40%
